Data taken from patent US5536648, “Amplified DNA assay using a double stranded DNA binding protein” (Amrad Corporation Limited).

What was measured:
[1] = molecular target: T1, GST-GCN4 6.8 (full-length GCN4, 281 aa) (Saccharomyces cerevisiae, UniProt P03069 P03069:1-281); experiment: microtitre plate capture; binds with 1 ug/ml carrier human DNA; oligo called d2 in results, d1 in methods; conditions: tags: N-terminal GST (Schistosoma japonicum), pGEX-2T, E. coli; chain copies: 2
[2] = molecular target: T1, GST-GCN4 6.8 (full-length GCN4, 281 aa); experiment: microtitre plate capture, MTPBS-Tween, 20 C; binds with 1 ug/ml carrier human DNA; conditions: tags: N-terminal GST (Schistosoma japonicum), pGEX-2T, E. coli; chain copies: 2

T1 sequence (P03069 whole entry, one chain of several): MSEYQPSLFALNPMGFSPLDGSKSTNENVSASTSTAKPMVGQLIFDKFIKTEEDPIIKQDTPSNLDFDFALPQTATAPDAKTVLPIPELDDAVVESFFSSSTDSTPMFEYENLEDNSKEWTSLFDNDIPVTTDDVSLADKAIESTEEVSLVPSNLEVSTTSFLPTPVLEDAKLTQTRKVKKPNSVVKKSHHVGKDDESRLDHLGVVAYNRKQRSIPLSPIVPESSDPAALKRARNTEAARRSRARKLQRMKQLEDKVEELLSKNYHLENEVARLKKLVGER

Row | Binder | binding result [1] | binding result [2]
1 | HIV p24 c-d1 (figure: d2) PCR product with GCN4 site (primer d1 shown) (dsDNA) DNA 1: AGCGGATGACTCATTTTTTTTTCCTTGTCTTATGTCCAGAA DNA 2: TTCTGGACATAAGACAAGGAAAAAAAAATGAGTCATCCGCT | binds | –
2 | HIV p24 c-d PCR product with GCN4 site (primer d shown) (dsDNA) DNA 1: AAGTGACTCAAGTGACTCAATCCTTGTCTTATGTCCAGAA DNA 2: TTCTGGACATAAGACAAGGATTGAGTCACTTGAGTCACTT | – | binds
